In patent US6127149:

Biological target: cultured cells CH3/10T1/2 clone 8 (product of Dainippon Pharmaceutical Co., Ltd.)
Test: adhesion of cells to coated dish (10 ug/cm^2), 1 hour, DNA of attached cells by spectrophotometer

absorbance (OD at 260 nm) of attached cells: 0.33 OD at 260 nm
B1: invariant modified epimorphin fragment: fragment (2) of mouse epimorphin (Examples 10 to 12) (protein)
chain: NGNRTSVDLRIRRTQHSVLSRKFVDVMTEYNEAQILFRERSKGRIQRQLEITGRTTTDDELEEMLESGKPSIFISDIISDSQIT
